# ± gives the uncertainty stated by the source.
# B1: Integrator complex subunit 12, residues 155 to 213; numbered along this chain, Q96CB8 (parent)
# chain: AMEMGLACVVCRQMMVASGNQLVECQECHNLYHRDCHKPQVTDKEANDPRLVWYCARCT
# Variants of: B1
# Assay: abundance fitness (aPCA) (normalised: wild type 0, dead -1); higher = more abundant; growth selection in yeast, the domain comes from the species named
# Details: Homo sapiens
row,Variant,abundance fitness
1,AMEMGLACVVCRQMMVASGNQLVECQECHNLYHRDCHKPQVTDKEANDPRLVPYCARCT [W53P],-0.302 ± 0.058
2,AMEMGLACVVCRQMMVASGNQLVECQECHNLYHRDCHKPQVTDKEANDPRLVQYCARCT [W53Q],-0.205 ± 0.061
3,AMEMGLACVVCRQMMVASGNQLVECQECHNLYHRDCHKPQVTDKEANDPRLVFYCARCT [W53F],-0.045 ± 0.098
4,AMEMGLACVVCRQMMVASGNQLVECQECHNLYHRDCHKPQVTDKEANDPRLVLYCARCT [W53L],-0.283 ± 0.049
5,AMEMGLACVVCRQMMVASGNQLVECQECHNLYHRDCHKPQVTDKEANDPRLVRYCARCT [W53R],-0.147 ± 0.05
6,AMEMGLACVVCRQMMVASGNQLVECQECHNLYHRDCHKPQVTDKEANDPRLVCYCARCT [W53C],-0.453 ± 0.092
7,AMEMGLACVVCRQMMVASGNQLVECQECHNLYHRDCHKPQVTDKEANDPRLVTYCARCT [W53T],-0.13 ± 0.071
8,AMEMGLACVVCRQMMVASGNQLVECQECHNLYHRDCHKPQVTDKEANDPRLVAYCARCT [W53A],-0.115 ± 0.064
9,AMEMGLACVVCRQMMVASGNQLVECQECHNLYHRDCHKPQVTDKEANDPRLVHYCARCT [W53H],-0.266 ± 0.097
10,AMEMGLACVVCRQMMVASGNQLVECQECHNLYHRDCHKPQVTDKEANDPRLVDYCARCT [W53D],-0.104 ± 0.14
11,AMEMGLACVVCRQMMVASGNQLVECQECHNLYHRDCHKPQVTDKEANDPRLVGYCARCT [W53G],-0.27 ± 0.052
12,AMEMGLACVVCRQMMVASGNQLVECQECHNLYHRDCHKPQVTDKEANDPRLVNYCARCT [W53N],-0.112 ± 0.094
13,AMEMGLACVVCRQMMVASGNQLVECQECHNLYHRDCHKPQVTDKEANDPRLVYYCARCT [W53Y],-0.322 ± 0.16
14,AMEMGLACVVCRQMMVASGNQLVECQECHNLYHRDCHKPQVTDKEANDPRLVMYCARCT [W53M],-0.252 ± 0.077
15,AMEMGLACVVCRQMMVASGNQLVECQECHNLYHRDCHKPQVTDKEANDPRLVKYCARCT [W53K],-0.146 ± 0.067
16,AMEMGLACVVCRQMMVASGNQLVECQECHNLYHRDCHKPQVTDKEANDPRLVWLCARCT [Y54L],0.026 ± 0.046
17,AMEMGLACVVCRQMMVASGNQLVECQECHNLYHRDCHKPQVTDKEANDPRLVWWCARCT [Y54W],-0.222 ± 0.063
18,AMEMGLACVVCRQMMVASGNQLVECQECHNLYHRDCHKPQVTDKEANDPRLVWQCARCT [Y54Q],0.027 ± 0.065
19,AMEMGLACVVCRQMMVASGNQLVECQECHNLYHRDCHKPQVTDKEANDPRLVWNCARCT [Y54N],0.007 ± 0.081
20,AMEMGLACVVCRQMMVASGNQLVECQECHNLYHRDCHKPQVTDKEANDPRLVWGCARCT [Y54G],-0.187 ± 0.049
21,AMEMGLACVVCRQMMVASGNQLVECQECHNLYHRDCHKPQVTDKEANDPRLVWICARCT [Y54I],-0.113 ± 0.082
22,AMEMGLACVVCRQMMVASGNQLVECQECHNLYHRDCHKPQVTDKEANDPRLVWTCARCT [Y54T],0.067 ± 0.062
23,AMEMGLACVVCRQMMVASGNQLVECQECHNLYHRDCHKPQVTDKEANDPRLVWSCARCT [Y54S],0.04 ± 0.052

row,Variant,abundance fitness
1,AMEMGLACVVCRQMMVASGNQLVECQECHNLYHRDCHKPQVTDKEANDPRLVWECARCT [Y54E],-0.069 ± 0.047
2,AMEMGLACVVCRQMMVASGNQLVECQECHNLYHRDCHKPQVTDKEANDPRLVWPCARCT [Y54P],-0.35 ± 0.059
3,AMEMGLACVVCRQMMVASGNQLVECQECHNLYHRDCHKPQVTDKEANDPRLVWVCARCT [Y54V],-0.068 ± 0.045
4,AMEMGLACVVCRQMMVASGNQLVECQECHNLYHRDCHKPQVTDKEANDPRLVWHCARCT [Y54H],0.119 ± 0.082
5,AMEMGLACVVCRQMMVASGNQLVECQECHNLYHRDCHKPQVTDKEANDPRLVWACARCT [Y54A],-0.093 ± 0.047
6,AMEMGLACVVCRQMMVASGNQLVECQECHNLYHRDCHKPQVTDKEANDPRLVWRCARCT [Y54R],0.116 ± 0.054
7,AMEMGLACVVCRQMMVASGNQLVECQECHNLYHRDCHKPQVTDKEANDPRLVWYCRRCT [A56R],-0.12 ± 0.041
8,AMEMGLACVVCRQMMVASGNQLVECQECHNLYHRDCHKPQVTDKEANDPRLVWYCTRCT [A56T],-0.054 ± 0.05
9,AMEMGLACVVCRQMMVASGNQLVECQECHNLYHRDCHKPQVTDKEANDPRLVWYCVRCT [A56V],-0.128 ± 0.036
10,AMEMGLACVVCRQMMVASGNQLVECQECHNLYHRDCHKPQVTDKEANDPRLVWYCGRCT [A56G],-0.057 ± 0.039
11,AMEMGLACVVCRQMMVASGNQLVECQECHNLYHRDCHKPQVTDKEANDPRLVWYCFRCT [A56F],-0.265 ± 0.069
12,AMEMGLACVVCRQMMVASGNQLVECQECHNLYHRDCHKPQVTDKEANDPRLVWYCCRCT [A56C],-0.02 ± 0.075
13,AMEMGLACVVCRQMMVASGNQLVECQECHNLYHRDCHKPQVTDKEANDPRLVWYCERCT [A56E],-0.08 ± 0.043
14,AMEMGLACVVCRQMMVASGNQLVECQECHNLYHRDCHKPQVTDKEANDPRLVWYCDRCT [A56D],-0.273 ± 0.064
15,AMEMGLACVVCRQMMVASGNQLVECQECHNLYHRDCHKPQVTDKEANDPRLVWYCNRCT [A56N],-0.209 ± 0.11
16,AMEMGLACVVCRQMMVASGNQLVECQECHNLYHRDCHKPQVTDKEANDPRLVWYCWRCT [A56W],-0.134 ± 0.05
17,AMEMGLACVVCRQMMVASGNQLVECQECHNLYHRDCHKPQVTDKEANDPRLVWYCYRCT [A56Y],-0.136 ± 0.079
18,AMEMGLACVVCRQMMVASGNQLVECQECHNLYHRDCHKPQVTDKEANDPRLVWYCHRCT [A56H],-0.031 ± 0.11
19,AMEMGLACVVCRQMMVASGNQLVECQECHNLYHRDCHKPQVTDKEANDPRLVWYCMRCT [A56M],-0.02 ± 0.055
20,AMEMGLACVVCRQMMVASGNQLVECQECHNLYHRDCHKPQVTDKEANDPRLVWYCSRCT [A56S],-0.054 ± 0.047
21,AMEMGLACVVCRQMMVASGNQLVECQECHNLYHRDCHKPQVTDKEANDPRLVWYCKRCT [A56K],-0.169 ± 0.057
22,AMEMGLACVVCRQMMVASGNQLVECQECHNLYHRDCHKPQVTDKEANDPRLVWYCPRCT [A56P],-0.185 ± 0.054

# From the Human Domainome abundance scans (Beltran et al. 2025)
